Measured values: patent publication US6713276B2, “Modulation of Aβ levels by β-secretase BACE2” (Scios, Inc., priority 2000, dated 2004)

Assays:
APP751sw = test: cell-free β-secretase assay, β-NTF ELISA, APP751sw substrate; format: biochemical, human; details: membrane extracts of transfected HEK293 cells, pH 4.5, 37° C.
Procedure: The β-secretase assay consists of two different parts, an incubation or reaction phase to generate β-NTF and an ELISA part to capture and measure the β-NTF generated by β-secretase. The β-secretase ELISA was performed as follows. Each well of a 96 well plate containing a flat bottom (high protein binding, Corning, N.Y.) was coated with 100 μl of the monoclonal capture antibody 8E5 (at ˜8-10 μg/ml) (Johnson-Wood et al. Proc. Natl. Acad. Sci. USA 94: 1550-1555 [1997]). The plate was then covered with parafilm and incubated overnight at 4° C. or alternatively for 2 hours at 37° C. […]
One hundred μl of a 1:5000 dilution of a goat anti rabbit IgG-HRP in Antibody-Conjugate Buffer was then added to each well, and the plate incubated at room temperature for one hour. […] After sufficient blue color had developed, the reactions were stopped by adding 100 μl of 5N H2SO4 to each well, and the amount of βNTF was determined by reading the plate at 450 nm in a Softmax spectrophotometer.
Equal amounts of membrane extracts from either mock, BACE or BACE2 transfected HEK293 cells were incubated with partially purified full length APP751 sw or APP751wt for the indicated times. The formation of β-NTF was then determined using the respective β-NTF specific ELISA as described in General Methodology.

[1] = system: APP751sw processing in HEK293T cells; test: co-transfection with APP751sw in HEK293T cells, ELISA of conditioned medium; format: cell-based, human
Procedure: Expression vectors containing BACE and BACE2 cDNAs were transfected into HEK293T cells in the presence of APP751sw or CT100 (Shoji et al., Science 258: 126-129 [1992]; Lichtenthaler et al., Proc. Natl. Acad. Sci. USA 96: 3053-3058 [1999]). Transfections were performed in 24 well plates using Lipofectamine Plus (Gibco/BRL, Bethesda, Md.) and DNA concentrations were kept constant by including non-specific DNA. Expression plasmids were tested for BACE and BACE2 expression by Western blotting. Cell culture supernatants were collected 48 hours and 72 hours post-transfection, and assayed for α-NTF, β-NTF and Aβ formation. β-NTF measurement was performed as described below. α-NTF was captured like β-NTF but was detected with biotinylated 2H3 (Johnson-Wood et al., Proc. Nati. Acad. Sci. USA 94: 1550-1555 [1997]). Aβ levels were determined by an ELISA using monoclonal antibodies 266 for capture and biotinylated 3D6 for detection (see Johnson-Wood et al., [1997] ibid for antibody epitope description). Aβ42, in contrast, was captured using 21F 12 and detected with biotinylated 3D6. Cell extracts prepared 72 hour post-transfection were separated by SDS-PAGE (Novex) and probed with CT695 (Zymed) for APP and CTFs as well as with an Aβ specific monoclonal antibody WO2 (kindly provided by K. Beyreuther; Ida et al., J. Biol. Chem. 271: 22908-22914 [1996]). Alternatively, co-transfection experiments using APP751sw and BACE or BACE2 were performed in the human neuroblastoma cell line, SK-N-MC, available from the American Type Culture Collection (ATCC).
Given the ability of BACE2 to cleave APP at the β-secretase site in vitro, we investigated the role of BACE2 in HEK293T cells relative to BACE. Variable amounts of BACE2 or BACE expression plasmids were co-transfected with constant amount of DNA encoding APP751sw substrate cDNA. Cell supernatants were collected 48 hours or 72 hours post-transfection and analyzed for α-NTF, β-NTF, total Aβ and Aβ42 as described in Genenral Methodology. Expression of APP751 sw alone led to a significant increase in β-NTF, α-NTF, total Aβ and Aβ42 (FIGS. 2a-d) compared to mock-transfected cells. […] This was most likely due to the fact that overexpressed APP751sw was in excess and was already very efficiently cleaved by endogenous BACE (compare mock versus APP751 sw alone). BACE effects on Aβ formation have been reported to be variable (Vassar et al., [1999] ibid; Sinha et al,[1999] ibid; Hussain et al., [1999] ibid; Yan et al, [1999] ibid; Lin et al,[2000] ibid) and thus it appears that additional factors such as γ-secretase might become limiting.
In an independent experiment, we addressed whether BACE2 competed with the ability of BACE to cleave APP at the β-secretase site. HEK293T cells were co-transfected with constant amounts of APP751sw and BACE, and increasing levels of BACE2. β-NTF and Aβ levels were then measured in culture supernatant (FIG. 3). […] BACE and BACE2 appeared to compete for the substrate and thus the effect on β-NTF might rather be steric. In particular, if BACE2 is a less efficient β-secretase in competing with BACE for substrate, it would reduce the overall β-secretase cleavage efficiency (see also FIG. 4). However, this reduction is insufficient to account for the Aβ reduction with BACE2.

Molecule | β-NTF formation (β-secretase cleavage in vitro) (APP751sw) | Aβ42 in conditioned medium ([1]; co-transfected with APP751sw) | total Aβ in conditioned medium ([1]; co-transfected with APP751sw) | α-NTF levels in conditioned medium ([1]; co-transfected with APP751sw) | β-NTF levels in conditioned medium ([1]; co-transfected with APP751sw) | total OD of α-NTF plus β-NTF ([1]; co-transfected with APP751sw, APP751sw alone ~2.59) [OD] | β-NTF formation in the presence of co-transfected BACE ([1]; constant APP751sw and BACE) | Aβ levels in the presence of co-transfected BACE ([1]; constant APP751sw and BACE, increasing BACE2) | Aβ production (total Aβ, Aβ42) with aspartate mutant ([1]; co-transfected with APP751sw or CT100)
BACE2: human aspartyl protease, close homolog of BACE (SEQ ID NO: 2), expressed from pcDNA3.1(−)/BACE2 in transfected cells (protein) MGALARALLLPLLAQWLLRAAPELAPAPFTLPLRVAAATNRVVAPTPGPGTPAERHADGLALALEPALASPAGAANFLAMVDNLQGDSGRGYYLEMLIGTPPQKLQILVDTGSSNFAVAGTPHSYIDTYFDTERSSTYRSKGFDVTVKYTQGSWTGFVGEDLVTIPKGFNTSFLVNIATIFESENFFLPGIKWNGILGLAYATLAKPSSSLETFFDSLVTQANIPNVFSMQMCGAGLPVAGSGTNGGSLVLGGIEPSLYKGDIWYTPIKEEWYYQIEILKLEIGGQSLNLDCREYNADKAIVDSGTTLLRLPQKVFDAVVEAVARASLIPEFSDGFWTGSQLACWTNSETPWSYFPKISIYLRDENSSRSFRITILPQLYIQPMMGAGLNYECYRFGISPSTNALVIGATVMEGFYVIFDRAQKRVGFAASPCAEIAGAAVSEISGPFSTEDVASNCVPAQSLSEPILWIVSYALMSVCGAILLVLIVLLLLPFRCQRRPRDPEVVNDESSLVRHRWK | time-dependent increase in β-NTF formation | striking reduction of total Aβ and Aβ42 to levels found in mock-transfected cells | striking reduction of total Aβ and Aβ42 to levels found in mock-transfected cells | slightly higher levels of α-NTF in conditioned medium from BACE2 versus BACE transfected cells | the effect on β-NTF levels was very similar to that of BACE | ~2.5 | reduced the ability of BACE to form β-NTF in a dose-dependent manner | dramatic dose-dependent reduction in Aβ levels | –
BACE2 D110A: single D110A BACE2 mutant of a critical aspartate residue, made by site-directed mutagenesis (protein) ALEPALASPAGAANFLAMVDNLQGDSGRGYYLEMLIGTPPQKLQILVATGSSNFAVAGTPHSYIDTYFDTERSSTYRSKGFDVTVKYTQGSWTGFVGEDLVTIPKGFNTSFLVNIATIFESENFFLPGIKWNGILGLAYATLAKPSSSLETFFDSLVTQANIPNVFSMQMCGAGLPVAGSGTNGGSLVLGGIEPSLYKGDIWYTPIKEEWYYQIEILKLEIGGQSLNLDCREYNADKAIVDSGTTLLRLPQKVFDAVVEAVARASLIPEFSDGFWTGSQLACWTNSETPWSYFPKISIYLRDENSSRSFRITILPQLYIQPMMGAGLNYECYRFGISPSTNALVIGATVMEGFYVIFDRAQKRVGFAASPCAEIAGAAVSEISGPFSTEDVASNCVPAQSLSEPILWIVSYALMSVCGAILLVLIVLLLLPFRCQRRPRDPEVVNDESSLVRHRWK | lost their ability to cleave at the β-secretase site in vitro | – | – | – | – | – | compete as well if not slightly more effectively with BACE to form β-NTF | – | clearly reversed the suppression of Aβ production
